Source: patent publication US20250108100A1, “C-TERMINAL FRAGMENT OF APOLIPOPROTEIN E AND APPLICATION THEREOF IN INHIBITING y-SECRETASE ACTIVITY” (SYNPHATEC (SHANGHAI) BIOPHARMACEUTICAL TECHNOLOGY CO., LTD., priority 2022, published 2025)

Target: purified human γ-secretase (NCT-V5-6×His; FLAG-PEN2; APH; PS1) (human) (UniProt Q92542)
Experiment: cell-based or functional assay

Chain of ApoE2-3×FLAG (purified) (P02649 19-317 R176C): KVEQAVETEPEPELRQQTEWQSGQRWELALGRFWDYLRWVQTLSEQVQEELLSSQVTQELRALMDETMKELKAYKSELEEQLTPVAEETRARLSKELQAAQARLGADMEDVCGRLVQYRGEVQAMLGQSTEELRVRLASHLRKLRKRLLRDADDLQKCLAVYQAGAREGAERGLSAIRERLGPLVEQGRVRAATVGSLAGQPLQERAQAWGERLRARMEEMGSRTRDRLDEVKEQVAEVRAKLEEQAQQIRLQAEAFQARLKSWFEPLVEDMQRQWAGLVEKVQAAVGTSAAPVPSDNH

- IC50 for Aβ production on co-incubation of purified β-CTF and γ-secretase with a concentration series of ApoE2 (ELISA): 1.2 µM
- half-inhibitory concentration (IC50) for Aβ40 production from purified β-CTF by purified γ-secretase (ELISA): 1.2 µM
Substance: ApoE2-3×FLAG (purified) (from UniProt P02649 19-317)
